According to IntAct's records for PubMed 23340509:

B1: Protein Tob2 (Homo sapiens), Q14106 (parent)
chain: MQLEIKVALNFIISYLYNKLPRRRADLFGEELERLLKKKYEGHWYPEKPLKGSGFRCVHIGEMVDPVVELAAKRSGLAVEDVRANVPEELSVWIDPFEVSYQIGEKGAVKVLYLDDSEGCGAPELDKEIKSSFNPDAQVFVPIGSQDSSLSNSPSPSFGQSPSPTFIPRSAQPITFTTASFAATKFGSTKMKKGGGAASGGGVASSGAGGQQPPQQPRMARSPTNSLLKHKSLSLSMHSLNFITANPAPQSQLSPNAKEFVYNGGGSPSLFFDAADGQGSGTPGPFGGSGAGTCNSSSFDMAQVFGGGANSLFLEKTPFVEGLSYNLNTMQYPSQQFQPVVLAN

Variants of: B1
Details: with pabp1_human PABPC1, P11940
pabp1_human PABPC1, P11940, sequence (P11940 whole entry): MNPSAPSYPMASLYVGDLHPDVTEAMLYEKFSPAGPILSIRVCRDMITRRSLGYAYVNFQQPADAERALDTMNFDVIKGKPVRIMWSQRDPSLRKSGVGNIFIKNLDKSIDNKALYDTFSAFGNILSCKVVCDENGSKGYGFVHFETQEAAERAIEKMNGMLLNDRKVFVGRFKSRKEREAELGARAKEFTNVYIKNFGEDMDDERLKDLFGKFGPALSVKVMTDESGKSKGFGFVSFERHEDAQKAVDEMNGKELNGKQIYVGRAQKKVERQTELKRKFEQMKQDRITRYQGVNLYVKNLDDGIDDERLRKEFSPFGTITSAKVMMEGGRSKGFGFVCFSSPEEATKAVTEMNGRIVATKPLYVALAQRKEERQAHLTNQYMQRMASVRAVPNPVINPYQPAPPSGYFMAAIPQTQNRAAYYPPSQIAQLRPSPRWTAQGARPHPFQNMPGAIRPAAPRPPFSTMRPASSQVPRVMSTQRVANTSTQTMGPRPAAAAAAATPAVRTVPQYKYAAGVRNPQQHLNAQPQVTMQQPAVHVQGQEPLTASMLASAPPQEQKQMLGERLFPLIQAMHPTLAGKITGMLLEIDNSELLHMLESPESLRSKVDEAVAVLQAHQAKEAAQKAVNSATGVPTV

| effect of a mutation on the interaction | Variant |
| --- | --- |
| disrupting interaction | F140A;F260A |
